{
  "source": "patent US20230226096A1",
  "about": "(Orna Therapeutics, Inc., priority 2020, published 2023)",
  "molecules": {"B1": {"name": "Hunnivirus A1 (nucleic acid, listed as Hunnivirus sp.)", "DNA": "TAACGTTTGGCAAGAACCCTCACCTGTCAATTGGGACCACCACTTTCAGTGACCCCATGCGAAGTAGTGAGAGAGAATAAGCTTTCTTACCCTTCATTTGTGAACCCTTCAGTCGAAGCCGCTTGGAATAAGATAGGAGGAAAAGTTCATTCTAAATGGAGTGAAACATGTACTTCAGAATTTCTAGCACGCGCTGGGCTTTCTTGCGTGTGACGGCACTGTCTTGCCGGAGCTCTCCACACTGACACCCCACGCTTGTGGACCTTGGTGGCAGATGACAACACTGCAGCTGGAATTGAGTGTCTGGTACACTCTGTGTAACAGTGAAAACAATGTGATCACTTCGGTGAGCTAGTAGCCTGTGGACCAACAACTGGTAACAGTTGCCTCAGGGGCCAAAAGCCACGGTGTTTACAGCACCCTACTGGTTTGATTGGAGCAATCCAAGATGTCACAGAGTTAGTAATTGCCAAGCAGTCCGTACTGGTATCTTGACATACCGTGCAGTTTTGGATAGTGAAGGATGCCCTGACGGTACCCATAGGTAACAAGTGACACTATGGATCTAAGCAGGGGCTCACTCTACGCTGCTTTACAGCTGGCTGTGAGTTAAAAAACGTCTAGCTATCCACAACCTAGGGGACTAGGTTTTCCTTTTATTTAGATTACAATTAT"}, "B2": {"name": "GFTV (nucleic acid)", "DNA": "ATGGGGAAGGGTATGACGTGCCCCTTCCTTCTTCGGAGAACTCGCTCTAGTGGTCTTTCCACTTCTGGAAAAGAGTGAGTGCACGTGATCAGGACCGTCGAAGACGACAAATACCTGGTGCTCTATCTCATAGACGTTTCACAGCTGTAGCGACCCCTCAGTAGCAGCGGAAGCCCCCTCCTGGTGACAGGAGCCTCTGCGGCCAAAAGCCACGTGGATAAGATCCACTGCTGAGGGCGGTGCGACCCTAGCACCCTGTGATGCATACTAGTTGTAGCGTGCCGGACTATTGGTCTGTCATAAGACACCTGATAGAGAGACCAAGAATGTCCTGGAGGTACCCCGCGTGCGGGATCTGACCAGGAGACCATTGCCCAATGCTTTACAACGGGTCTATGGTTTAAAAACTGTCGCAGTCTCTCCAAACCAAGTGGTCTTGGTTTTCAATTACTTTGAATATTTCACT"}, "B3": {"name": "Ia Io (nucleic acid)", "DNA": "GGTGTCCGGGTGTGTGGGATAGACCCAGATGTGCAGTGGATGCGAGCATTTGAGTCAGAGTAGGAGCAAGCCCAGGGGCAAAGGGACCACATTGTGTATCCCGAATGAAGGATCGAGATTTCTCTCCTCATTACCCGGTGTCTTGTCACTGTTGGGGGGGCCCAACAGTCTTAGTCCTATACTGCCTGATAGGGTCGCGGCTGGCCGGACTCAAGTGCTATAGTCAGTTGATTTTCACTC"}, "B4": {"name": "Mobovirus A (nucleic acid)", "DNA": "TATTCTCCCACAAACCTTCTTGTAACTCTGTTAAGCCTTTTACATCCATGTAATTTAATTTTCTCCACCTAAAAGGATTTCCCCCATGGTCCTTTTTGGCTCGAACAAATGCTACATAGGGTCTTGTTTTCTCCCCCTGGCTCTCTTGCCAGGGTTCCATACCCCAATTCCTCTATTTCCATGATTTTTCATCATGGTTTATTTTTACTGTCTTCTTATTTTCTGAGGTGACCAACTCCTAAGCCGACTGGGTCGCGGAAGCCCGGACTCCTCGCATCACTAGGGTGCGTAGCGATGTAGGCGAAAATATTGGTTGCTAGATGCATACATATAGTGAATTGATACTACACCAAACTCTGTTCTTTTTGAAACTAGCTATTTTCTAAGTAAGGTAGGCTACGGGTGAAACCTTACCATTGCAGGTACGTGAACCGCAACGGACATTTGGCCGAAGACTGGTGTACCCACGTCAGTTATAGGACCTCTTCAACGTTGGTGGACGGCATGTCACTGATTAGTTAGGCTAGTGAATTTAAGTTCAGGGGGTATCTTTTAGCTTAAGCGTGTATTCTAGTAGGACTTGCAGAGCCTCCCCACCTAGGAGGATCTCTGTTTATAGCCCCTTTTCCTTGTTCCGTTAGTTTTCCACACTTTTACAATATTTGATGATTTGTT"}, "B5": {"name": "Hunnivirus A2 (nucleic acid, listed as Hunnivirus sp.)", "DNA": "ACAGTTTTTGACAAGGACCCTCACCTGTCAATCGGGACCACCACTTTCAGTGACCCCGTGCGAAGTGTTGAGAGAAAGTGAGCTTTCTTACCCTTCATTTGTGAACCCTTCAGTCGAAGCCGCTTGGAATAAGATGGAAGGAAATGTTCATTCTAAATGGAGTGAAACATATACTTAATTTCCAGTGTTTAGTGGTCTTTCCACTAGACAACGGCACTGTCTTGCCGGAACTCTACACACCAACATTCCACGCTTGTGGGACTCAAATGTTGGATGACACAGTTGTAGCTGGAACTGAGTGTTTAGTGCACTCTGTGTAACAGTGAAAACAATGTGATCACTTCGGTGGGCTAGTAGCCTGTGGACTAACAACTGGTAACAGTTGCCTCAGGGGCCAAAAGCCACGGTGTTAACAGCACCCTACTAGTTTGATTGGAGCAATCCATGATGTTACAGAGTTAGTAACTGCCAAACAGATTGTACTGGTATCTTGGCATACCGTGCAACTTAGGATAGTGAAGGATGCCCTGGCGGTACCCATAGGTAACAAGTGACACTATGGATCTAAACAGGGGCTCACTCTACGTTGCTTTACAACTAGCTGTGAGTTAAAAAACGTCTAACTATCCACAACCTAGGGGACTAGGTTTTCCTTTTTATTTTTATACACAACTA"}, "B6": {"name": "SAFV V13C (nucleic acid)", "DNA": "TTTTCGACGTGGTTGGAATTGCCATCATTTCCGACGAAAGTGCTATCATGCCTCCCCGATTATGTGATGTTTTCTGCCCTGCTGGGCGGAGCATTCTCGGGTTGAGAAACCTTGAATCTTTTTCTTTGGAACCTTGGTTCCCCCGGTCTAAGCCGCTTGGAATATGACAGGGTTATTTTCTTGATCTTATTTCTACTTTTGCGGGTTCTATCCGTAAAAAGGGTACGTGCTGCCCCTTCCTTCTCTGGAGAATTCACACGGCGGTCTTTCCGTCTCTCAACAAGTGTGAATGCAGCATGCCGGAAACGGTGAAGAAAACAGTTTTCTGTGGAAATTTAGAGTGCACATCGAAACAGCTGTAGCGACCTCACAGTAGCAGCGGACTCCCCTCTTGGCGACAAGAGCCTCTGCGGCCAAAAGCCCCGTGGATAAGATCCACTGCTGTGAGCGGTGCAACCCCAGCACCCTGGTTCGATGATCATTCTCTATGGAACCAGAAAATGGTTTTCTCAAGCCCTCCGGTAGAGAAGCCAAGAATGTCCTGAAGGTACCCCGCGTGCGGGATCTGATCAGGAGACCAATTGGCGGTGCTTTACACTGTCACTTTGGTTTAAAAATTGTCACAGCTTCTCCAAACCAAGTGGTCTTGGTTTTCCAATTTTGTTGAATGGCAAT"}, "B7": {"name": "ABPV (nucleic acid)", "DNA": "CCCGTCAAAATAACAACTTATAACACGATGTTACCCGAAGAAACCATTTTAGTGTAACATTTAAGATTAGAAGTAGTTCATCTAATAGAGATAGGCACTATTAGAAGGAGGCCTTTTCTAAAGGAGCCGTTAGTCAGCCCAGACAAGCGCAGTACTTTAGAAGAGAGAAGTTCCCCGATAGCGACCGAAAAGACGCGTTTTCCGTGCTAACTAATTTAAATGTGGGAACGAATATTATTATTGAAATTATGTGAGCCACGTAGCAATCAAGTCATGTTTTTGTCACTACGTTTACTCATCTAATGTAGATAATTTTGTTTAAGTACCTATTTAGGTGTCATCCCACCAGAGAAGAAATAATACGTACCGGAACCCAGAGTACACCCCTTATTTTAAGCCTTACTGGGCTTCTCTGTTAGTTAGTAATCTGGCCCACGTTTTGCGTTGAGTGGGGTCCCAACAGTAGGAATTCGACGGACAAGTAGCAAGCGAGTCGGTACCAATTGGTTTAGCCTTCGAAATTACTCTGGGCAGGAAGTTACTAAACGAGAACTTTCTGCTTAAATCCCAACGCACAAACAAATAGAGTAAATAAATAATTATA", "modifications": "Acute bee paralysis virus"}, "B8": {"name": "BRBV-1 (nucleic acid)", "DNA": "CCCCCCCTACTTAAAGATGTACGGTTTTGCTGCTTTCACAGAGTAAAGCAGATAGAGGTTCTGAACTGGCAAACTTTACCTCGAAACACGCCCGTTTTTCTGCTGTGTCTCACAGACTGTCCTGTCACACTTGTGGCGGCTTGTGACACTGTGAACATAGTGAGACCGACCAAGACAACAGTTTCAAGTGATGAACATCGAACGTCTAAACTGGATCCGTAACTGGACATGTTAGGGCAAGGACTTCCCCCCTGGTAACAGGAGCCTGGCTGGCCAAAAGCCCCGCTCATTGAGCCTAGCATGTTGTCGACCCTGGACTGTTCAGTTTAGTTAGTACATGGAATTCACTTGTCACGGTTCTTCTGAACTCGGTCTCTAGTATGACAGCCTAAGGATGCCCTCCAGGTACCCCGGGGTAACAAGTGACACCCGGGATCTGAGGAGGGGACTACTTTACGTAGTTTAAAAAACGTCTAAGCTGTTATGGTGACCAGAGGCTGGCACCTTTCACTTTTAAAATTACACTACTGACTACAATTGAAGTGATAACGGTTTTACAGGCTTTCAAACTAGTTACACAAGCACTGTTTTCCTGACACACACACTTT", "modifications": "Bovine rhinitis B virus"}, "B9": {"name": "Burpengary Virus (nucleic acid)", "DNA": "CTCCCCCCCCTTCCCCTTCCCGAGTAGGAGATTGGCATGTATGCTCTACATGCCCGATTCTCTCTTGCTCACTCTCTTAAATCCTGGTGGCGGTCTCGGATTAAACATTTATGTCGTATCTGGGATCGTCTTACTTGGTGGTAATTCCTCTGTTGCCTAGGGACCTCCGGACTGCCGGATTAAAGGTCTCAACAGAGGGCAATGTACAAGGAAGTCATTATACGCTAATTAAGTATTTGATGAATGACTAGTGTGACAGGGCTGAGGAACTCCCCCCGGGTAACCGGTGCCTCAGCGTCCGAAAGACACGTGGATAGGATCCACCCTGTTATACCCAGCACGATGTAATAGTCAAATACCTCTGATTTGTGTAGGATGTATAAATTGTGCATTGTAAATTTTGGGCGTAGAGATGCTCCGAAGGTACCCCGTTTTACGGGATCTGATCGGAGGCTAATTACCCAATGCGCCCTAAATAACTTCATATAATTTCTTTTTCTTTATTCAAA"}, "B10": {"name": "BRAV-2 (nucleic acid)", "DNA": "TTTGTTTTGCGGCTTTGCCGTTGTTCGGGTTTTACCTGTTTTCACACAGCAAAACAGGCCTTCTAGTTTCGTGCTTAAACGAGATCATGCTCGAACTAGAACTACATAGCTGGTCACTGGACTCATACCACACCTTGTGGAGCTTTATGGGAAAGGTGGCTAGTGGGCTGTGGAAGTGACTCTGACCACATGCCTCTCAAGTGTGGGAAATCACGGATCGGTGTAGCGACGACAACAGGCCTTGGGACACCCTCTCCAGTAATGGAGACCCAAGGGGCCAAAAGCCACGCCTCGTGCCCTGTTGTTCACAACCCCAGTGCGACCCGTGTTAGTACCTATTTGCGAGAACTGTGTCTGGACAGCTAAACACAACCCTAGTGGGAGACTAAGGATGCCCAGGAGGTACCCGGAGGTAACAAGTGACACTCTGGATCTGACCTGGGGAGAGAGGGCTTGCTTTACAGGCGCCTCTCTTTAAAAAGCTTCTATGTCTCATCAGGCACCGGAGGCCGGGCCTTTTCCTTTTAAAATTACACTTA", "modifications": "Bovine rhinitis A virus"}},
  "data": [
    {"tested_on": "HEK293 cells", "format": "cell-based, human", "conditions": "luminescence from secreted Gluc in supernatant 24 hours after transfection of HEK293 cells; circular RNA encoding Gluc with the named IRES (UTR truncated to 675 nt)", "values": [
      {"molecule": "B1", "Expression": "1.61E+06"},
      {"molecule": "B2", "Expression": "1.23E+06"},
      {"molecule": "B3", "Expression": "1.35E+06"},
      {"molecule": "B4", "Expression": "3.44E+06"},
      {"molecule": "B5", "Expression": "6.38E+06"},
      {"molecule": "B6", "Expression": "9.32E+07"},
      {"molecule": "B7", "Expression": "6.48E+05"},
      {"molecule": "B8", "Expression": "3.34E+06"},
      {"molecule": "B9", "Expression": "1.09E+07"},
      {"molecule": "B10", "Expression": "3.98E+06"}
    ]}
  ]
}
